Experimental data reported in article PMC3830196, “Calmodulin-like protein AtCML3 mediates dimerization of peroxisomal processing protease AtDEG15 and contributes to normal peroxisome metabolism” (Plant Molecular Biology, 2013).

Molecular target: T1, AtDEG15 full length (yeast two-hybrid / three-hybrid fusion) (Arabidopsis thaliana, UniProt Q8VZD4 1-709)
T1 construct: AtDEG15, peroxisomal DEG protease of Arabidopsis thaliana (At1g28320); full-length coding region; Cloned both into pBridge and pGAD424; in the Y3H the full length stood in pBridge; also called AtDEG15_pBridge; AtDEG15_pGAD424; source: yeast two-hybrid fusion (S. cerevisiae AH109)
Test: two-hybrid; Matchmaker GAL4 system, fusions in pBridge (DNA-binding domain) and pGAD424 (activation domain), S. cerevisiae AH109; HIS3 reporter (growth on His-free medium) and lacZ reporter (beta-galactosidase, Miller units)
Conditions: partners not purified

beta-galactosidase activity, fold over the negative controls: 20 fold
B1: AtCML3 full length (yeast two-hybrid fusion) (natural protein, Arabidopsis thaliana, UniProt Q9SRR7 1-153, looked up)
chain: MDQAELARIFQMFDRNGDGKITKQELNDSLENLGIYIPDKDLVQMIEKIDLNGDGYVDIEEFGGLYQTIMEERDEEEDMREAFNVFDQNRDGFITVEELRSVLASLGLKQGRTLEDCKRMISKVDVDGDGMVNFKEFKQMMKGGGFAALGSNL
notes: AtCML3, calmodulin-like protein of Arabidopsis thaliana (At3g07490); full-length coding region; Cloned both into pBridge and pGAD424; also called AtCML3_pGAD424; AtCML3_pBridge; source: yeast two-hybrid fusion (S. cerevisiae AH109)
